The data set concerns MS2 coat protein. In words: apparent KD of MS2 coat protein; designed switch direction (-1 OFF switch, 1 ON switch): 1; higher = weaker reporter binding. The gist of the method: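 The buffer was Tris-HCl pH 7.5 with KCl, MgCl2, BSA, DTT, tRNA and Tween-20. In it, SNAP-549-labelled MS2 coat protein was titrated in doubling steps from 0.7 or 1.5 nM to 3 µM over chip-bound RNA switches transcribed by stalled E. coli RNA polymerase on Illumina chips. Apparent KD is the per-design median over clusters of curve fits to normalised fluorescence.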

Where [1] appears, read: input ligand: microRNA oligo, concentration not stated.
Setting [2] is: Eterna round: R95, input ligand: microRNA oligo, concentration not stated.

For “ACCCGCGACGGAGGAUAUGGGCACUCGGCGAAAUAAACCGCCAUAACAUGAGGAUCACCCAUGUCCCAGAAGGCCGCCGCAAAC [Leatve] (Eterna round: R96, puzzle: Same State NG 2)”, the “apparent KD of MS2 coat protein” value amounted to 92.3 nM (input ligand: FMN 200 uM), 255 nM under setting [1] and 505 nM (input ligand: none).

As for “ACCCGCGACGGAGGAUAUGGGCACUCGGCGAAAUAAACCGCCAUAACAUGAGGAUCACCCAUGUCCCAGAAGGCCGUCGCAAUC [Anlelaen] (Eterna round: R96, puzzle: Same State NG 2)”, the “apparent KD of MS2 coat protein” value by setting is: (input ligand: FMN 200 uM) 81 nM; under setting [1], 154 nM; (input ligand: none) 473 nM.

With “ACGCAGCUGGGUGAGGAUAUCGGUGGUACUACAUGAGGAUCACCCAUGUCCGAAGCUCGGACCUCCGAGAAGGCGCCCGGCUGCG [Soinraesar Omei Mod 3] (puzzle: Same State 2)”, the “apparent KD of MS2 coat protein” value under setting [2] was determined as 184 nM.

For the sequence “ACUAAAACUGCAGGAUAUGUCCGGAACUCCGUUACAGAAGGGCAACGCACUGUUGAGGGCACGACAUGAGGAUCACCCAUGUAG [Eternabot solution 46] (Eterna round: R96, puzzle: Same State NG 1)”, the “apparent KD of MS2 coat protein” value (input ligand: FMN 200 uM) was 20.9 nM, the “apparent KD of MS2 coat protein” value under setting [1] was 22.5 nM and the “apparent KD of MS2 coat protein” value (input ligand: none) stood at 26.8 nM.

Regarding “AGAAAACAUGAGGAUCACCCAUGUAUAGUGAAUACAGGAUAUCAUCGACGGAAUAGUUGAUGAGAAGGGUGAUCGC [Gebiatan] (puzzle: Same State 1)”, the “apparent KD of MS2 coat protein” value (Eterna round: R95, input ligand: FMN 200 uM) turned out to be 13.2 nM; the “apparent KD of MS2 coat protein” value under setting [2] came out at 14.4 nM; the “apparent KD of MS2 coat protein” value (Eterna round: R95, input ligand: none) was found to be 10.4 nM.

On to “AGACACAUGAGGAUCACCCAUGUUACGAGCUUAGCUCGGACACAGGAUAUCCGGUCCUAGAGACCGGAGAAGGGUGGCUGAAAA [Zara MOD2] (Eterna round: R96, puzzle: Same State NG 3)”, for which the “apparent KD of MS2 coat protein” value was determined as 728 nM (input ligand: FMN 200 uM), 212 nM under setting [1] and 587 nM (input ligand: none).

As to “AGAGGAGGAGCAGGAUAUUCGAAGGAGGACGUGGAAGAAGGGUUCAUGCGAUGACAUGAGGAUCACCCAUGUACCGCGCGUCGA [AK SSNG1-V2-15] (Eterna round: R96, puzzle: Same State NG 1)”, the “apparent KD of MS2 coat protein” value reads like this: (input ligand: FMN 200 uM) 381 nM; under setting [1], 126 nM; (input ligand: none) 484 nM.

For the sequence “AGAGGAGGAGCAGGAUAUUCGACGGAGGACGUGGAAGAAGGGUUCAUGCGAUGACAUGAGGAUCACCCAUGUACCGCGCGUCGA [AK SSNG1-V2-15.1] (Eterna round: R96, puzzle: Same State NG 1)”, the “apparent KD of MS2 coat protein” value (input ligand: FMN 200 uM) worked out at 143 nM, the “apparent KD of MS2 coat protein” value under setting [1] was 106 nM and the “apparent KD of MS2 coat protein” value (input ligand: none) is 478 nM.

For “AGAUCAUGACGAGGAUAUCCGACAUGAGGAUCACCCAUGUAUGUCGGAGGACGCGUACGUCCAAAGGAGAAGGCGUCGUGGUCA [JL SSNG2 1.02] (Eterna round: R96, puzzle: Same State NG 2)”, the “apparent KD of MS2 coat protein” value (input ligand: FMN 200 uM) worked out at 17.4 nM, the “apparent KD of MS2 coat protein” value under setting [1] was 48.4 nM and the “apparent KD of MS2 coat protein” value (input ligand: none) is 100 nM.

Regarding “AGAUCAUGACGAGGAUAUGCGACAUGAGGAUCACCCAUGUAUGUUGCAGGACGCGUACGUCCAAUGUAGAAGGCGUCGUGGUCA [JL SSNG2 1.05] (Eterna round: R96, puzzle: Same State NG 2)”, the “apparent KD of MS2 coat protein” value is, setting by setting: (input ligand: FMN 200 uM) 22.8 nM; under setting [1], 65.1 nM; (input ligand: none) 88.7 nM.

As for “AGAUCAUGACGAGGAUAUGGAACAUGAGGAUCACCCAUGUAUGUUCCAUAACGCGAAUGACGAAUCCAGAAGGCGUCGUGGUCA [JL SSNG2 1.10] (Eterna round: R96, puzzle: Same State NG 2)”, the “apparent KD of MS2 coat protein” value is 15.6 nM (input ligand: FMN 200 uM), 112 nM under setting [1] and 168 nM (input ligand: none).

Source of the values: the supplement of paper PMC9170038.
